# According to patent US9663815B2, “Cytosolically-active peroxidases as reporters for microscopy” (Massachusetts Institute of Technology, priority 2011, dated 2017):
# Entries after “also recorded” stand apart in the source; their conditions may differ.
# Legend:
# [1] = Gel filtration chromatography, oligomerization state; type: physicochemical
# Procedure: APX, fluorescent protein, or miniSOG preparations were diluted to the desired concentrations using chilled (4° C.) PBS and then allowed to incubate at room temperature for 30 min to overnight. Samples (100 μL) were run on a Waters HPLC system over a Superdex 75 10/300 column (GE Healthcare) that had been pre-equilibrated in PBS, pH 7.4. Samples were run isocratically in PBS at a flow rate of 0.5 mL/min. Elution of APX was monitored at 280 nm and 405 nm (heme absorbance). Empower software (Waters) was used for analysis of elution profiles. Apparent MWs were determined against low molecular weight standards (GE). […] The apparent MW of the monomer for wt APX was assumed to be equal to the apparent MW of mAPX at 0.25 μM.
# To investigate whether this localization is an artifact of APEX dimerization at high concentrations, the experiment was repeated using a tandem dimer of APX^W41F (two APX^W41F proteins linked with a short amino acid chain, denoted tdAPX) as well as miniSOG in place of APEX. Additionally, gel filtration chromatography (GFC) was used to assess the relative abundance of oligomers that formed at increasing tdAPX concentrations in vitro (5 μM, 20 μM, and 47 μM). Three different linker lengths (18, 23, and 28 amino acids) were tested. His6-tagged proteins were expressed and purified from E. coli. All three variants gave a major peak with an apparent molecular weight (MW) of ˜56 kDa, as expected for tdAPX. The apparent MW of the major peak remained constant as a function of concentration for all three constructs. […] Therefore, the 28 amino acid linker variant was selected as the optimized tandem dimer to be used in EM experiments.
# HEK293T cells = test: Amplex UltraRed labeling (resorufin fluorescence) of cells expressing peroxidase; type: cell-based
# Procedure: The expression and activity of wild-type (wt) APX was tested using immunostaining and Amplex UltraRed, a fluorogenic peroxidase substrate, in three cellular compartments: cytosol, mitochondrial matrix, and endoplasmic reticulum (ER). APX was differentially expressed in each compartment using at least the constructs described in Table 3. For comparison, HRP was tested in the same locations. Activity was monitored through visualization of resorufin, the fluorescent product of Amplex UltraRed oxidation by HRP or APX (scheme in FIG. 7). […] When live cells were imaged immediately after Amplex UltraRed labeling, resorufin fluorescence was seen throughout the entire cell. After fixation, however, the majority of the resorufin diffused out of the cells, and resorufin fluorescence remained only in the compartment in which APX was expressed. (Note that Amplex UltraRed, a proprietary derivative of Amplex Red, was used rather than Amplex Red in this example).
# Further, Amplex UltraRed labeling and immunostaining of wtAPX, APX^W41F, mAPX, and APEX was performed on transfected HEK293T cells. Amplex UltraRed labeling was performed for 6 minutes. All APX variants were expressed with a C-terminal nuclear export signal (NES, see Table 3). […]
molecule,measurement,setting,value
"wt APX: pea cytosolic ascorbate peroxidase (Pisum sativum), wild type, about 28 kD, dimeric (protein, listed as Pisum sativum) MGKSYPTVSPDYQKAIEKAKRKLRGFIAEKKCAPLILRLAWHSAGTFDSKTKTGGPFGTIKHQAELAHGANNGLDIAVRLLEPIKEQFPIVSYADFYQLAGVVAVEITGGPEVPFHPGREDKPEPPPEGRLPDATKGSDHLRDVFGKAMGLSDQDIVALSGGHTIGAAHKERSGFEGPWTSNPLIFDNSYFTELLTGEKDGLLQLPSDKALLTDSVFRPLVEKYAADEDVFFADYAEAHLKLSELGFAEA",oligomerization state,[1]; PBS pH 7.4,predominantly dimeric at 0.25 μM; also recorded: runs as a dimer
same,peroxidase activity toward Amplex UltraRed (resorufin),"HEK293T cells; expressed in cytosol, mitochondrial matrix and endoplasmic reticulum (ER)",active in all contexts
"mAPX: double mutant K14D/E112K of pea APX (SEQ ID NO:1), monomeric (protein, listed as Pisum sativum) MGKSYPTVSPDYQDAIEKAKRKLRGFIAEKKCAPLILRLAWHSAGTFDSKTKTGGPFGTIKHQAELAHGANNGLDIAVRLLEPIKEQFPIVSYADFYQLAGVVAVEITGGPKVPFHPGREDKPEPPPEGRLPDATKGSDHLRDVFGKAMGLSDQDIVALSGGHTIGAAHKERSGFEGPWTSNPLIFDNSYFTELLTGEKDGLLQLPSDKALLTDSVFRPLVEKYAADEDVFFADYAEAHLKLSELGFAEA",oligomerization state,[1]; PBS pH 7.4,comparable to EYFP and much more monomeric than both wt APX and mEos2
same,oligomerization state,"[1]; PBS pH 7.4, listed as APX K14D/E112K",most monomericity
same,activity toward Amplex UltraRed,"HEK293T cells; cytosol (NES), HEK293T, labeling 6 minutes",less active than wt APX
